According to patent US20180325979A1 (UNIVERSITY OF SOUTHAMPTON, published 2018):

Molecular target: T1, HLA-Cw*0102 on the HLA-Cw*0102-positive cell line L721.174
T1 construct: whole, on cells
Experiment: MHC class I stabilisation on L721.174 cells, flow cytometry

Binder	binding result
IVDLMCHATF (also called Dengue virus peptide) [peptide IVDLMCHATF (SEQ ID NO: 1)]	binds
LNPSVAATL [peptide LNPSVAATL (SEQ ID NO: 5)]	binds
